According to patent US20070254831A1 (published 2007):
Where two headings read alike, the source gives them in different places. Values belong to the binder of their own block, whether it stands above or below them. Bridge positions count the residues as written; N and C are the ends. Square brackets hold non-standard residues; d marks the D form. Ends that are not written are not given here. Pen = CC(C)(S)[C@H](N)C(=O)O; Dab = NCC[C@H](N)C(=O)O

Columns and labels:
soluble human FcRn [1] = target: T1, soluble human FcRn (human, UniProt P55899 24-297; P61769 21-119, biotinylated (Sulfo-NHS-LC-Biotin) in the ELISA; amine-coupled to CM5 chip in SPR); test: ELISA, competitor human IgG
T1 construct: also called shFcRn; biotinylated shFcRn
Experimental: (§1) The wells were coated with 100 μl/well of 1 μg/ml biotinylated-shFcRn in Buffer A. The plate was sealed and incubated at 37° C. for 2 hours. Afterwards, the plate washed with 200 μl/well of Buffer B (Buffer B: 100 mM MES pH 6, 150 mM NaCl, 0.5% BSA IgG-free (Jackson ImmunoResearch, West Grove, Pa.), 0.05% Tween-20). […] To allow for mixing, the plate was rocked for 2 minutes, sealed and incubated at 37° C. for 2 hours. […] The plate was covered, incubated for 30 minutes at room temperature and washed 4 times with 200 μl/well of ice-cold buffer B. SureBlue TMB substrate solution (100 μl/well, KPL, Gaithersburg, Md.) was added and the plate was allowed to incubate at room temperature until color developed, which took 5 to 10 minutes. Once color developed, 100 μl/well of TMB stop solution (KPL, Gaithersburg, Md.) was added and the absorbance was measured at 450 nm. The data was plotted as absorbance vs. peptide concentration to derive the inhibitory concentration 50% (IC₅₀) values.

soluble human FcRn [2] = target: T1, soluble human FcRn; test: ELISA, competitor human IgG; remark: listed apart in the source
Experimental: as §1

soluble human FcRn [3] = target: T1, soluble human FcRn; test: SPR, pH 6
Experimental: (§2) The following steps were performed to cross-link soluble human or cynomolgus FcRn to the dextran surface of a CM5 sensor chip (Biacore AB, Uppsala, Sweden) by an amine coupling reaction involving 1-ethyl-(3-dimethylaminopropyl)-carbodiimide hydrochloride (EDC) (Biacore AB, Uppsala, Sweden) and N-hydroxysuccinimide (NHS) (Biacore AB, Uppsala, Sweden) as recommended by Biacore (BIAapplications Handbook, version AB, section 4.2, Biacore AB, Uppsala, Sweden). […] Residual sites on the FcRn flow cell were blocked with 1 M ethanolamine hydrochloride pH 8.5 (Biacore AB, Uppsala, Sweden). A control flow cell was blocked with ethanolamine for reference subtraction. For analysis of the monomeric peptides, FcRn was coated to a final density of 4000-5000 response units (RU). For analysis of the peptide dimers, FcRn was coated to a density of 2000-2500 RU. All SPR measurements were performed using a BIACORE 3000 Instrument (Biacore AB Uppsala, Sweden). For measurements done at either pH 6 or pH 7.4, experiments were performed in 50 mM phosphate, 100 mM sodium chloride, 0.01% surfactant P20 (Biacore AB, Uppsala, Sweden).
(§3) Ten, 2-fold dilutions of the peptide were injected over the FcRn-CM5 chip at a rate of 20 μl/min for 2 min. The peptide was dissociated from the chip for 2.5 minutes with buffer. Any remaining peptide was removed from the chip with a 30 second injection of HBS-P buffer (Biacore AB, Uppsala, Sweden) at a rate of 30 μl/min. Sensorgrams were generated and analyzed using BiaEval software version 3.1 (Biacore AB, Uppsala, Sweden). The equilibrium RU observed for each injection was plotted against concentration. The equilibrium KD values were derived by analysis of the plots using the steady state affinity model included in the BiaEval software.

soluble human FcRn [4] = target: T1, soluble human FcRn; test: ELISA, competitor human IgG; remark: listed apart in the source
Experimental: as §1

soluble human FcRn [5] = target: T1, soluble human FcRn; test: SPR, pH 6; remark: listed apart in the source
Experimental: as §2, §3

IC50 (soluble human FcRn [2]): 200 µM
B3: Peptide No. 175 (peptide)
peptide: QRFVTGHFG[dP]FYPANGP-NH2
modifications: N-terminus assumed
SMILES: CC(C)[C@H](NC(=O)[C@H](Cc1ccccc1)NC(=O)[C@H](CCCNC(=N)N)NC(=O)[C@@H](N)CCC(N)=O)C(=O)N[C@H](C(=O)NCC(=O)N[C@@H](Cc1c[nH]cn1)C(=O)N[C@@H](Cc1ccccc1)C(=O)NCC(=O)N1CCC[C@@H]1C(=O)N[C@@H](Cc1ccccc1)C(=O)N[C@@H](Cc1ccc(O)cc1)C(=O)N1CCC[C@H]1C(=O)N[C@@H](C)C(=O)N[C@@H](CC(N)=O)C(=O)NCC(=O)N1CCC[C@H]1C(N)=O)[C@@H](C)O

IC50 (soluble human FcRn [2]): 94 µM
B4: Peptide No. 174 (peptide)
peptide: QRFVTGHFG[dP]IYPANGP-NH2
modifications: N-terminus assumed
SMILES: CC[C@H](C)[C@H](NC(=O)[C@H]1CCCN1C(=O)CNC(=O)[C@H](Cc1ccccc1)NC(=O)[C@H](Cc1c[nH]cn1)NC(=O)CNC(=O)[C@@H](NC(=O)[C@@H](NC(=O)[C@H](Cc1ccccc1)NC(=O)[C@H](CCCNC(=N)N)NC(=O)[C@@H](N)CCC(N)=O)C(C)C)[C@@H](C)O)C(=O)N[C@@H](Cc1ccc(O)cc1)C(=O)N1CCC[C@H]1C(=O)N[C@@H](C)C(=O)N[C@@H](CC(N)=O)C(=O)NCC(=O)N1CCC[C@H]1C(N)=O

IC50 (soluble human FcRn [2]): 100 µM
B5: Peptide No. 168 (peptide)
peptide: QRFVTGHFG[dP]LYPLNGP-NH2
modifications: N-terminus assumed
SMILES: CC(C)C[C@H](NC(=O)[C@H]1CCCN1C(=O)CNC(=O)[C@H](Cc1ccccc1)NC(=O)[C@H](Cc1c[nH]cn1)NC(=O)CNC(=O)[C@@H](NC(=O)[C@@H](NC(=O)[C@H](Cc1ccccc1)NC(=O)[C@H](CCCNC(=N)N)NC(=O)[C@@H](N)CCC(N)=O)C(C)C)[C@@H](C)O)C(=O)N[C@@H](Cc1ccc(O)cc1)C(=O)N1CCC[C@H]1C(=O)N[C@@H](CC(C)C)C(=O)N[C@@H](CC(N)=O)C(=O)NCC(=O)N1CCC[C@H]1C(N)=O

IC50 (soluble human FcRn [1]): 4.6 µM
Binder: RFXTGXFGGLYPC (Pen at 3; 4aminoPhe at 6; Sar at 9; NMeLeu at 10; disulfide; C-terminal amide) [Peptide No. 258]

IC50 (soluble human FcRn [1]): 5.7 µM
B6: Peptide No. 271 (peptide)
peptide: RFXTGXFGGLYPC
modifications: Pen at 3; triazolylAla at 6; Sar at 9; NMeLeu at 10; disulfide; C-terminal amide

Kd (soluble human FcRn [5]): 0.84 µM | IC50 (soluble human FcRn [1]): 1.6 µM
B7: Peptide No. 248 (peptide)
peptide: RFXTGXFGGLYPC
modifications: not fully specified; Pen at 3; Thz at 6; Sar at 9; NMeLeu at 10; disulfide; C-terminal amide

IC50 (soluble human FcRn [1]): 160 µM
B8: Peptide No. 261 (peptide)
peptide: RFXTGXFGGLYPC
modifications: Pen at 3; PropargylGly at 6; Sar at 9; NMeLeu at 10; disulfide; C-terminal amide

IC50 (soluble human FcRn [1]): 2.4 µM
B9: Peptide No. 269 (peptide)
peptide: RFXTGXFGGLYPC
modifications: Pen at 3; Thz(Me) (N-methyl-thiazolium) at 6; Sar at 9; NMeLeu at 10; disulfide; -CONH2

Kd (soluble human FcRn [5]): 9.9 µM | IC50 (soluble human FcRn [1]): > 100 µM
Binder: RFXTGAFGGLYPC (Pen at 3; Sar at 9; NMeLeu at 10; disulfide; C-terminal amide) [Peptide No. 266]

Kd (soluble human FcRn [3]): 3.8 µM
Binder: QRFXTGHFFPLYPCNGP (Pen at 4; D-Phe at 9 (L-Pro at 10); disulfide; C-terminal amide) [Peptide No. 203]

Kd (soluble human FcRn [3]): 0.19 µM
Binder: QRFXTGHFAGLYPCNGP (Pen at 4; D-Ala at 9; Sar at 10; disulfide; C-terminal amide) [Peptide No. 189]

Kd (soluble human FcRn [5]): 8.4 µM
B13: Peptide No. 262 (peptide)
peptide: RFXTGXFGGLYPC
modifications: Pen at 3; 2-PyrrolidinylAla at 6; Sar at 9; NMeLeu at 10; disulfide; C-terminal amide

Kd (soluble human FcRn [5]): 1.3 µM
Binder: RFXTGXFGGLYPC (Pen at 3; Orn at 6; Sar at 9; NMeLeu at 10; disulfide; C-terminal amide) [Peptide No. 254]

The next lines start with the binder.

B1: Peptide No. 36 (peptide)
peptide: QRFCTG[Dab]FGGLYPCNGP-NH2
modifications: disulfide 4-14; N-terminus assumed
SMILES: CC(C)C[C@@H]1NC(=O)CNC(=O)CNC(=O)[C@H](Cc2ccccc2)NC(=O)[C@H](CCN)NC(=O)CNC(=O)[C@H]([C@@H](C)O)NC(=O)[C@@H](NC(=O)[C@H](Cc2ccccc2)NC(=O)[C@H](CCCNC(=N)N)NC(=O)[C@@H](N)CCC(N)=O)CSSC[C@@H](C(=O)N[C@@H](CC(N)=O)C(=O)NCC(=O)N2CCC[C@H]2C(N)=O)NC(=O)[C@@H]2CCCN2C(=O)[C@H](Cc2ccc(O)cc2)NC1=O
IC50 (soluble human FcRn [1]): > 125 µM

B2: Peptide No. 157 (peptide)
peptide: QRFVTGHFG[dP]LYPANGP-NH2
modifications: N-terminus assumed
SMILES: CC(C)C[C@H](NC(=O)[C@H]1CCCN1C(=O)CNC(=O)[C@H](Cc1ccccc1)NC(=O)[C@H](Cc1c[nH]cn1)NC(=O)CNC(=O)[C@@H](NC(=O)[C@@H](NC(=O)[C@H](Cc1ccccc1)NC(=O)[C@H](CCCNC(=N)N)NC(=O)[C@@H](N)CCC(N)=O)C(C)C)[C@@H](C)O)C(=O)N[C@@H](Cc1ccc(O)cc1)C(=O)N1CCC[C@H]1C(=O)N[C@@H](C)C(=O)N[C@@H](CC(N)=O)C(=O)NCC(=O)N1CCC[C@H]1C(N)=O
IC50 (soluble human FcRn [2]): 195 µM

Binder: QRFXTGHFXGLYPCNGP (Pen at 4; Aib at 9; disulfide; C-terminal amide) [Peptide No. 54]
Kd (soluble human FcRn [3]): 5.2 µM | IC50 (soluble human FcRn [4]): 17 µM

Binder: QRFXTGXFGGLYPCNGP (Pen at 4; Thz at 7; disulfide; C-terminal amide) [Peptide No. 91]
IC50 (soluble human FcRn [1]): 44 µM

Binder: QRFXTGXFGGLYPCNGP (Pen at 4; (1Me)His at 7; disulfide; C-terminal amide) [Peptide No. 138]
Kd (soluble human FcRn [5]): 0.74 µM | IC50 (soluble human FcRn [1]): 3.4 µM

Binder: QRFXTGHFGYLYPCNGP (Pen at 4; D-Tyr at 10; disulfide; C-terminal amide) [Peptide No. 45]
Kd (soluble human FcRn [3]): 1.5 µM

Binder: QRFXTGHFFPLYPCNGP (Pen at 4; D-Phe at 9; D-Pro at 10; disulfide; C-terminal amide) [Peptide No. 150]
Kd (soluble human FcRn [3]): 0.72 µM | IC50 (soluble human FcRn [4]): 5.9 µM

B10: Peptide No. 155 (peptide)
peptide: QRF[Pen]TGHF[dF]GPYPCNGP-NH2
modifications: disulfide 4-14; N-terminus assumed
SMILES: C[C@@H](O)[C@@H]1NC(=O)[C@@H](NC(=O)[C@H](Cc2ccccc2)NC(=O)[C@H](CCCNC(=N)N)NC(=O)[C@@H](N)CCC(N)=O)C(C)(C)SSC[C@@H](C(=O)N[C@@H](CC(N)=O)C(=O)NCC(=O)N2CCC[C@H]2C(N)=O)NC(=O)[C@@H]2CCCN2C(=O)[C@H](Cc2ccc(O)cc2)NC(=O)[C@@H]2CCCN2C(=O)CNC(=O)[C@@H](Cc2ccccc2)NC(=O)[C@H](Cc2ccccc2)NC(=O)[C@H](Cc2c[nH]cn2)NC(=O)CNC1=O
Kd (soluble human FcRn [3]): 18.3 µM | IC50 (soluble human FcRn [4]): 39 µM

Binder: QRFXTGHFGALYPCNGP (Pen at 4; D-Ala at 10; disulfide; C-terminal amide) [Peptide No. 74]
Kd (soluble human FcRn [3]): 0.48 µM | IC50 (soluble human FcRn [4]): 2 µM

B11: Peptide No. 151 (peptide)
peptide: QRF[Pen]TGHF[dF][dA]LYPCNGP-NH2
modifications: disulfide 4-14; N-terminus assumed
SMILES: CC(C)C[C@@H]1NC(=O)[C@@H](C)NC(=O)[C@@H](Cc2ccccc2)NC(=O)[C@H](Cc2ccccc2)NC(=O)[C@H](Cc2c[nH]cn2)NC(=O)CNC(=O)[C@H]([C@@H](C)O)NC(=O)[C@@H](NC(=O)[C@H](Cc2ccccc2)NC(=O)[C@H](CCCNC(=N)N)NC(=O)[C@@H](N)CCC(N)=O)C(C)(C)SSC[C@@H](C(=O)N[C@@H](CC(N)=O)C(=O)NCC(=O)N2CCC[C@H]2C(N)=O)NC(=O)[C@@H]2CCCN2C(=O)[C@H](Cc2ccc(O)cc2)NC1=O
IC50 (soluble human FcRn [4]): 4.3 µM

B12: Peptide No. 149 (peptide)
peptide: QRF[Pen]TGHF[dA][dP]LYPCNGP-NH2
modifications: disulfide 4-14; N-terminus assumed
SMILES: CC(C)C[C@@H]1NC(=O)[C@H]2CCCN2C(=O)[C@@H](C)NC(=O)[C@H](Cc2ccccc2)NC(=O)[C@H](Cc2c[nH]cn2)NC(=O)CNC(=O)[C@H]([C@@H](C)O)NC(=O)[C@@H](NC(=O)[C@H](Cc2ccccc2)NC(=O)[C@H](CCCNC(=N)N)NC(=O)[C@@H](N)CCC(N)=O)C(C)(C)SSC[C@@H](C(=O)N[C@@H](CC(N)=O)C(=O)NCC(=O)N2CCC[C@H]2C(N)=O)NC(=O)[C@@H]2CCCN2C(=O)[C@H](Cc2ccc(O)cc2)NC1=O
IC50 (soluble human FcRn [4]): 3.7 µM

Binder: QRFXTGHFAGLYPCNGP (Pen at 4; D-Ala at 9; disulfide; C-terminal amide) [Peptide No. 75]
Kd (soluble human FcRn [3]): 0.49 µM

Binder: QRFXTGHFPPLYPCNGP (Pen at 4; D-Pro at 9 and 10; disulfide; C-terminal amide) [Peptide No. 152]
IC50 (soluble human FcRn [4]): 21 µM

Binder: QRFXTGHFRGLYPCNGP (Pen at 4; D-Arg at 9; disulfide; C-terminal amide) [Peptide No. 49]
IC50 (soluble human FcRn [4]): 4.1 µM

Binder: QRFXTGHFFGLYPCNGP (Pen at 4; D-Phe at 9; NMeLeu at 11; disulfide; C-terminal amide) [Peptide No. 153]
Kd (soluble human FcRn [3]): 0.24 µM | IC50 (soluble human FcRn [4]): 1.3 µM

Binder: QRFXTGHFHGLYPCNGP (Pen at 4; D-His at 9; disulfide; C-terminal amide) [Peptide No. 50]
IC50 (soluble human FcRn [4]): 3.6 µM

Binder: QRFXTGHFFGLYPCNGP (Pen at 4; D-Phe at 9; disulfide; C-terminal amide) [Peptide No. 52]
Kd (soluble human FcRn [3]): 0.51 µM | IC50 (soluble human FcRn [4]): 2.8 µM

Binder: QRFXTGHFAALYPCNGP (Pen at 4; D-Ala at 9 and 10; disulfide; C-terminal amide) [Peptide No. 148]
Kd (soluble human FcRn [3]): 0.45 µM

Binder: QRFXTGHFPGLYPCNGP (Pen at 4; D-Pro at 9; disulfide; C-terminal amide) [Peptide No. 48]
IC50 (soluble human FcRn [4]): 5 µM
